Laboratory results published in publication PMC5586346.

Assays:
[1] = target: dominant-negative α7 nAChR α7_(345-8A) (UniProt P36544)
[2] = target: α7 nicotinic acetylcholine receptor (mouse (endogenous in EOC20)) (UniProt P49582)
[3] = target: dominant-negative α7 nAChR α7_(345-8A) (UniProt P36544); remark: listed apart in the source
[4] = target: α7 nicotinic acetylcholine receptor (mouse (endogenous in EOC20)) (UniProt P49582); remark: listed apart in the source

heterotrimeric G protein subunit Gαi (from UniProt P08752 1-355) (natural protein)
TNF-α release (ELISA of the medium), % change from baseline with LPS, LPS + 1 mM choline, EOC20 cells transfected with α7 (345-8A) [1]: -9.22%
TNF-α release (ELISA of the medium), % change from baseline with LPS, LPS + 1 mM choline, EOC20 cells transfected with empty vector [2]: -25.8%
peak of the intracellular calcium transient (GCaMP5G, % of baseline) on 3 mM choline, EOC20 cells transfected with α7 (345-8A) [3]: 368%
peak of the intracellular calcium transient (GCaMP5G, % of baseline) on 3 mM choline, EOC20 cells transfected with empty plasmid [4]: 580%
